Data: patent US20230167164A1 (IMMUNOWAKE, published 2023)

Experiments:
human PD-1 = biological target: T1, human PD-1 (human, UniProt Q15116 25-167, limits assumed); assay: PD-L2-Fc format, calibrated on PD-L2(wt)-Fc binding affinity
T1 construct: nivolumab is called an anti-human PD-1 antibody; also called hPD-1

mouse PD-1 = biological target: T2, mouse PD-1 (mouse, UniProt Q02242 25-167, limits assumed); assay: as above
T2 construct: also called mPD-1
T2 sequence (looked up): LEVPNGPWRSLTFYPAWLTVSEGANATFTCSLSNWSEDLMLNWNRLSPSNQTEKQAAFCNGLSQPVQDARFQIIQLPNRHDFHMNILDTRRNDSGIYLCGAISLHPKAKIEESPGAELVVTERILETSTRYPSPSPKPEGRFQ

human CD4 on cells = biological target: T3, human CD4 on cells (human, UniProt P01730 26-458); assay: FACS on CD4+ T cells
T3 construct: whole, on cells; also called CD4+ T cells; HEK-CD4-IFN-γ cells

[1] = biological target: human IL-12 receptor complex (human, UniProt P42701 24-662; Q99665 24-862); assay: cell-based or functional assay
human IL-12 receptor complex, sequence (Q99665 24-862, chain 2 of 2, other chains not shown): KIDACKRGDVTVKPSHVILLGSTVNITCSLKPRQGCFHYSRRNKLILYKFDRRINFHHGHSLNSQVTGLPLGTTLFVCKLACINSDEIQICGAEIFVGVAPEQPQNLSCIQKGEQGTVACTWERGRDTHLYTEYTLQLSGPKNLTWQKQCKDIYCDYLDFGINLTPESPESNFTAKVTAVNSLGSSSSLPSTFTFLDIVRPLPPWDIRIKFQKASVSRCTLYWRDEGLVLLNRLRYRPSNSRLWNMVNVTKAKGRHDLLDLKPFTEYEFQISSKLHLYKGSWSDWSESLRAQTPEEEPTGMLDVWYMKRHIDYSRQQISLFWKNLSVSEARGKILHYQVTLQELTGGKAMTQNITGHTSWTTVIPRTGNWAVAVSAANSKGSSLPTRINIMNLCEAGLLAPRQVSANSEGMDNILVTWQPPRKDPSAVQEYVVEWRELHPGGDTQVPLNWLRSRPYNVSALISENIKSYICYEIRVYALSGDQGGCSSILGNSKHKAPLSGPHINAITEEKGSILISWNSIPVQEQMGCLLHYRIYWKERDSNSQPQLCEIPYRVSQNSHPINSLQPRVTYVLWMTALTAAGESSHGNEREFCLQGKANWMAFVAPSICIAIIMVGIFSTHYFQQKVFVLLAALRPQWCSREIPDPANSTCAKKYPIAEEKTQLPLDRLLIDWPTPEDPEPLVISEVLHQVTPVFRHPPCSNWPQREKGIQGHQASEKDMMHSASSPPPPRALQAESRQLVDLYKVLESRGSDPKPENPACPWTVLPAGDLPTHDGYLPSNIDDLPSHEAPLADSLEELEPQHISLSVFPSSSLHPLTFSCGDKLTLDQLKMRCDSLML

T1 sequence (Q15116 25-167 limits assumed): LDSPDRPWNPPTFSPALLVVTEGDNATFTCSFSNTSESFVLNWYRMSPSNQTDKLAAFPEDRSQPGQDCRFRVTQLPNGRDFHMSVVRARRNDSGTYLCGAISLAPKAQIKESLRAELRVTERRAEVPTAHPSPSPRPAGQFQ

B1: PD-L2(mut3)-Fc (Fc fusion)
chain 1: LFTVTVPKELYIIEHGSNVTLECNFDTGSHVNLGAITASLLKVENDTSPHRERATLLEEQLPLGKASFHIPQVQVRDEGQYQCIIIYGVAWDYKYLTLKVKASYRKINTHILKVPETDEVELTCQATGYPLAEVSWPNVSVPANTSHSRTPEGLYQVTSVLRLKPPPGRNFSCVFWNTHVRELTLASIDLQSQMEPRTHPTDKTHTCPPCPAPEDEGGPSVFLFPPKPKDTLMISRTPEVTCVVVDVSHEDPEVKFNWYVDGVEVHNAKTKPREEQYNSTYRVVSVLTVLHQDWLNGKEYKCKVSNKALPAPIEKTISKAKGQPREPQVYVYPPSREEMTKNQVSLTCLVKGFYPSDIAVEWESNGQPENNYKTTPPVLDEDGSFALVSKLTVDKSRWQQGNVFSCSVMHEALHNHYTQKSLSLSPGK
chain 2: LFTVTVPKELYIIEHGSNVTLECNFDTGSHVNLGAITASLLKVENDTSPHRERATLLEEQLPLGKASFHIPQVQVRDEGQYQCIIIYGVAWDYKYLTLKVKASYRKINTHILKVPETDEVELTCQATGYPLAEVSWPNVSVPANTSHSRTPEGLYQVTSVLRLKPPPGRNFSCVFWNTHVRELTLASIDLQSQMEPRTHPTDKTHTCPPCPAPEKKGGPSVFLFPPKPKDTLMISRTPEVTCVVVDVSHEDPEVKFNWYVDGVEVHNAKTKPREEQYNSTYRVVSVLTVLHQDWLNGKEYKCKVSNKALPAPIEKTISKAKGQPREPQVYVLPPSREEMTKNQVSLLCLVKGFYPSDIAVEWESNGQPENRYMTWPPVLDSDGSFFLYSKLTVDKSRWQQGNVFSCSVMHEALHNHYTQKSLSLSPGK
notes: also called Q60L
For B1, the Kd (human PD-1) was 490 nM and the Kd (mouse PD-1) was 320 nM.

B2: PD-L2(mut4)-Fc (Fc fusion)
chain 1: LFTVTVPKELYIIEHGSNVTLECNFDTGSHVNLGAIVAVLLKVENDTSPHRERATLLEEQLPLGKASFHIPQVQVRDEGQYQCIIIYGVAWDYKYLTLKVKASYRKINTHILKVPETDEVELTCQATGYPLAEVSWPNVSVPANTSHSRTPEGLYQVTSVLRLKPPPGRNFSCVFWNTHVRELTLASIDLQSQMEPRTHPTDKTHTCPPCPAPEDEGGPSVFLFPPKPKDTLMISRTPEVTCVVVDVSHEDPEVKFNWYVDGVEVHNAKTKPREEQYNSTYRVVSVLTVLHQDWLNGKEYKCKVSNKALPAPIEKTISKAKGQPREPQVYVYPPSREEMTKNQVSLTCLVKGFYPSDIAVEWESNGQPENNYKTTPPVLDEDGSFALVSKLTVDKSRWQQGNVFSCSVMHEALHNHYTQKSLSLSPGK
chain 2: LFTVTVPKELYIIEHGSNVTLECNFDTGSHVNLGAIVAVLLKVENDTSPHRERATLLEEQLPLGKASFHIPQVQVRDEGQYQCIIIYGVAWDYKYLTLKVKASYRKINTHILKVPETDEVELTCQATGYPLAEVSWPNVSVPANTSHSRTPEGLYQVTSVLRLKPPPGRNFSCVFWNTHVRELTLASIDLQSQMEPRTHPTDKTHTCPPCPAPEKKGGPSVFLFPPKPKDTLMISRTPEVTCVVVDVSHEDPEVKFNWYVDGVEVHNAKTKPREEQYNSTYRVVSVLTVLHQDWLNGKEYKCKVSNKALPAPIEKTISKAKGQPREPQVYVLPPSREEMTKNQVSLLCLVKGFYPSDIAVEWESNGQPENRYMTWPPVLDSDGSFFLYSKLTVDKSRWQQGNVFSCSVMHEALHNHYTQKSLSLSPGK
notes: also called PD-L2(T56V/S58V/Q60L)
B2 gave a Kd (human PD-1) of 255 nM and a Kd (mouse PD-1) of 220 nM.

B3: Fab-IL-12(WT)-Fc-CD8 Ab (other)
heavy 1: EVQLQQSGPELVKPGASVKMSCKASGYTFTDYYMKWVKQSHGKSLEWIGHINPNNDDTFYTQKFKGRATLTVDKSSSTAYMQLNSLTSEDSAVYYCVRDDYDGGWFAYWGQGTLVTVSSASTKGPSVFPLAPSSKSTSGGTAALGCLVKDYFPEPVTVSWNSGALTSGVHTFPAVLQSSGLYSLSSVVTVPSSSLGTQTYICNVNHKPSNTKVDKKVEPKSCDKPGSGIWELKKDVYVVELDWYPDAPGEMVVLTCDTPEEDGITWTLDQSSEVLGSGKTLTIQVKEFGDAGQYTCHKGGEVLSHSLLLLHKKEDGIWSTDILKDQKEPKNKTFLRCEAKNYSGRFTCWWLTTISTDLTFSVKSSRGSSDPQGVTCGAATLSAERVRGDNKEYEYSVECQEDSACPAAEESLPIEVMVDAVHKLKYENYTSSFFIRDIIKPDPPKNLQLKPLKNSRQVEVSWEYPDTWSTPHSYFSLTFCVQVQGKSKREKKDRVFTDKTSATVICRKNASISVRAQDRYYSSSWSEWASVPCSGGGGSGGGGSGGGGSGGGGSGRNLPVATPDPGMFPCLHHSQNLLRAVSNMLQKARQTLEFYPCTSEEIDHEDITKDKTSTVEACLPLELTKNESCLNSRETSFITNGSCLASRKTSFMMALCLSSIYEDLKMYQVEFKTMNAKLLMDPKRQIFLDQNMLAVIDELMQALNFNSETVPQKSSLEEPDFYKTKIKLCILLHAFRIRAVTIDRVMSYLNASDKTHTCPPCPAPEDEGGPSVFLFPPKPKDTLMISRTPEVTCVVVDVSHEDPEVKFNWYVDGVEVHNAKTKPREEQYNSTYRVVSVLTVLHQDWLNGKEYKCKVSNKALPAPIEKTISKAKGQPREPQVYVYPPSREEMTKNQVSLTCLVKGFYPSDIAVEWESNGQPENNYKTTPPVLDEDGSFALVSKLTVDKSRWQQGNVFSCSVMHEALHNHYTQKSLSLSPGK
heavy 2: EVQLQQSGPELVKPGASVKMSCKASGYTFTDYYMKWVKQSHGKSLEWIGHINPNNDDTFYTQKFKGRATLTVDKSSSTAYMQLNSLTSEDSAVYYCVRDDYDGGWFAYWGQGTLVTVSSASTKGPSVFPLAPSSKSTSGGTAALGCLVKDYFPEPVTVSWNSGALTSGVHTFPAVLQSSGLYSLSSVVTVPSSSLGTQTYICNVNHKPSNTKVDKKVEPKSCDKTHTCPPCPAPEKKGGPSVFLFPPKPKDTLMISRTPEVTCVVVDVSHEDPEVKFNWYVDGVEVHNAKTKPREEQYNSTYRVVSVLTVLHQDWLNGKEYKCKVSNKALPAPIEKTISKAKGQPREPQVYVLPPSREEMTKNQVSLLCLVKGFYPSDIAVEWESNGQPENRYMTWPPVLDSDGSFFLYSKLTVDKSRWQQGNVFSCSVMHEALHNHYTQKSLSLSPGK
light: DIQMTQTTSSLSASLGDRVTISCRASQDINNYLNWYQQKSDGTIKLLIYYTSRSYSGVPSRFSGSGSGTDYSLTISNRRQEDIATYFCQQGKTLPWTFGGGTKLEIKRTVAAPSVFIFPPSDEQLKSGTASVVCLLNNFYPREAKVQWKVDNALQSGNSQESVTEQDSKDSTYSLSSTLTLSKADYEKHKVYACEVTHQGLSSPVTKSFNRGEC
For B3, the binding result (human CD4 on cells) was “no binding” and the “IFN-γ release, % of rIL-12, activated CD4+ T cells” value [1] was 21%.

B4: Fab-IL-12(E59A)-Fc-CD8 Ab (other)
heavy 1: EVQLQQSGPELVKPGASVKMSCKASGYTFTDYYMKWVKQSHGKSLEWIGHINPNNDDTFYTQKFKGRATLTVDKSSSTAYMQLNSLTSEDSAVYYCVRDDYDGGWFAYWGQGTLVTVSSASTKGPSVFPLAPSSKSTSGGTAALGCLVKDYFPEPVTVSWNSGALTSGVHTFPAVLQSSGLYSLSSVVTVPSSSLGTQTYICNVNHKPSNTKVDKKVEPKSCDKPGSGIWELKKDVYVVELDWYPDAPGEMVVLTCDTPEEDGITWTLDQSSEVLGSGKTLTIQVKAFGDAGQYTCHKGGEVLSHSLLLLHKKEDGIWSTDILKDQKEPKNKTFLRCEAKNYSGRFTCWWLTTISTDLTFSVKSSRGSSDPQGVTCGAATLSAERVRGDNKEYEYSVECQEDSACPAAEESLPIEVMVDAVHKLKYENYTSSFFIRDIIKPDPPKNLQLKPLKNSRQVEVSWEYPDTWSTPHSYFSLTFCVQVQGKSKREKKDRVFTDKTSATVICRKNASISVRAQDRYYSSSWSEWASVPCSGGGGSGGGGSGGGGSGGGGSGRNLPVATPDPGMFPCLHHSQNLLRAVSNMLQKARQTLEFYPCTSEEIDHEDITKDKTSTVEACLPLELTKNESCLNSRETSFITNGSCLASRKTSFMMALCLSSIYEDLKMYQVEFKTMNAKLLMDPKRQIFLDQNMLAVIDELMQALNFNSETVPQKSSLEEPDFYKTKIKLCILLHAFRIRAVTIDRVMSYLNASDKTHTCPPCPAPEDEGGPSVFLFPPKPKDTLMISRTPEVTCVVVDVSHEDPEVKFNWYVDGVEVHNAKTKPREEQYNSTYRVVSVLTVLHQDWLNGKEYKCKVSNKALPAPIEKTISKAKGQPREPQVYVYPPSREEMTKNQVSLTCLVKGFYPSDIAVEWESNGQPENNYKTTPPVLDEDGSFALVSKLTVDKSRWQQGNVFSCSVMHEALHNHYTQKSLSLSPGK
heavy 2: EVQLQQSGPELVKPGASVKMSCKASGYTFTDYYMKWVKQSHGKSLEWIGHINPNNDDTFYTQKFKGRATLTVDKSSSTAYMQLNSLTSEDSAVYYCVRDDYDGGWFAYWGQGTLVTVSSASTKGPSVFPLAPSSKSTSGGTAALGCLVKDYFPEPVTVSWNSGALTSGVHTFPAVLQSSGLYSLSSVVTVPSSSLGTQTYICNVNHKPSNTKVDKKVEPKSCDKTHTCPPCPAPEKKGGPSVFLFPPKPKDTLMISRTPEVTCVVVDVSHEDPEVKFNWYVDGVEVHNAKTKPREEQYNSTYRVVSVLTVLHQDWLNGKEYKCKVSNKALPAPIEKTISKAKGQPREPQVYVLPPSREEMTKNQVSLLCLVKGFYPSDIAVEWESNGQPENRYMTWPPVLDSDGSFFLYSKLTVDKSRWQQGNVFSCSVMHEALHNHYTQKSLSLSPGK
light: DIQMTQTTSSLSASLGDRVTISCRASQDINNYLNWYQQKSDGTIKLLIYYTSRSYSGVPSRFSGSGSGTDYSLTISNRRQEDIATYFCQQGKTLPWTFGGGTKLEIKRTVAAPSVFIFPPSDEQLKSGTASVVCLLNNFYPREAKVQWKVDNALQSGNSQESVTEQDSKDSTYSLSSTLTLSKADYEKHKVYACEVTHQGLSSPVTKSFNRGEC
For B4, the binding result (human CD4 on cells) was “no binding” and the “IFN-γ release, % of rIL-12, activated CD4+ T cells” value [1] was 2.1%.
